The values below come from patent publication US20130115166A1 (CEPHALON AUSTRALIA, published 2013).

By koff is commonly meant a measure of how fast the partners let go of each other.

Sequences and labels used below:
B1: 11-23 (antibody, human IgG1, kappa, V domains shown)
VH: QVQLQESGPGLVKPSETLSLTCTVSGGSISSYNVHWIRQPPGKGLEWIGVIWTGGSTDYNPSLKSRVTISRDTSKNQFSLKLSSVTAADTAVYYCARDKYGLFPGYFDYWGQGTLVTVSS
VL: DIVMTQTPLSLPVTPGEPASISCKPSQSLLSSGNRKNYLAWYLQKPGQSPQLLIYYASTRQSGVPDRFSGSGSGTDFTLKISRVEAEDVGVYYCLQHFNYPWTFGQGTKLEIKR
notes: Humanized form of E11E7; also called humanized antibody 11-23
B2: 11-22 (antibody, human IgG1, kappa, V domains shown)
VH: QVQLQESGPGLVKPSETLSLTCTVSGGSISSYNVHWIRQPPGKGLEWIGVIWTGGSTDYNPSLKSRVTISRDTSKNQFSLKLSSVTAADTAVYYCARDKYGLFPGYFDYWGQGTLVTVSS
VL: DIVMTQSPDSLAVSLGERATINCKPSQSLLSSGNRKNYLAWYQQKPGQPPKLLIYYASTRQSGVPDRFSGSGSGTDFTLTISSLQAEDVAVYYCLQHFNYPWTFGQGTKLEIKR
notes: Humanized form of E11E7; also called humanized antibody 11-22
B3: 5-23 (antibody, human IgG1, kappa, V domains shown)
VH: QVQLQESGPGLVKPSETLSLTCTVSGGSIISYNVHWIRQPPGKGLEWIGVIWTGGSTDYNPSLKSRVTISRDTSKNQFSLKLSSVTAADTAVYYCARDKYGLFPGYFDYWGQGTLVTVSS
VL: DIVMTQTPLSLPVTPGEPASISCKPSQSLLSSGNRKNYLAWYLQKPGQSPQLLIYYASTRQSGVPDRFSGSGSGTDFTLKISRVEAEDVGVYYCLQHFNYPWTFGQGTKLEIKR
notes: Humanized form of E11E7; also called humanized antibody 5-23
B4: 9-23 (antibody, human IgG1, kappa, V domains shown)
VH: QVQLQESGPGLVKPSETLSLTCTVSGFSLISYNVHWIRQPPGKGLEWIGVIWTGGSTDYNPSLKSRVTISVDTSKNQFSLKLSSVTAADTAVYYCARDKYGLFPGYFDYWGQGTLVTVSS
VL: DIVMTQTPLSLPVTPGEPASISCKPSQSLLSSGNRKNYLAWYLQKPGQSPQLLIYYASTRQSGVPDRFSGSGSGTDFTLKISRVEAEDVGVYYCLQHFNYPWTFGQGTKLEIKR
notes: Humanized form of E11E7; also called humanized antibody 9-23
B5: 8-23 (antibody, human IgG1, kappa, V domains shown)
VH: QVQLQESGPGLVKPSETLSLTCTVSGFSLISYNVHWIRQPPGKGLEWIGVIWTGGSTDYNPSLKSRVTISRDTSKNQFSLKLSSVTAADTAVYYCARDKYGLFPGYFDYWGQGTLVTVSS
VL: DIVMTQTPLSLPVTPGEPASISCKPSQSLLSSGNRKNYLAWYLQKPGQSPQLLIYYASTRQSGVPDRFSGSGSGTDFTLKISRVEAEDVGVYYCLQHFNYPWTFGQGTKLEIKR
notes: Humanized form of E11E7; also called humanized antibody 8-23
B6: 7-23 (antibody, human IgG1, kappa, V domains shown)
VH: QVQLQESGPGLVKPSETLSLTCTVSGGSLSSYNVHWIRQPPGKGLEWIGVIWTGGSTDYNPSLKSRVTISRDTSKNQFSLKLSSVTAADTAVYYCARDKYGLFPGYFDYWGQGTLVTVSS
VL: DIVMTQTPLSLPVTPGEPASISCKPSQSLLSSGNRKNYLAWYLQKPGQSPQLLIYYASTRQSGVPDRFSGSGSGTDFTLKISRVEAEDVGVYYCLQHFNYPWTFGQGTKLEIKR
notes: Humanized form of E11E7; also called humanized antibody 7-23
B7: 9-22 (antibody, human IgG1, kappa, V domains shown)
VH: QVQLQESGPGLVKPSETLSLTCTVSGFSLISYNVHWIRQPPGKGLEWIGVIWTGGSTDYNPSLKSRVTISVDTSKNQFSLKLSSVTAADTAVYYCARDKYGLFPGYFDYWGQGTLVTVSS
VL: DIVMTQSPDSLAVSLGERATINCKPSQSLLSSGNRKNYLAWYQQKPGQPPKLLIYYASTRQSGVPDRFSGSGSGTDFTLTISSLQAEDVAVYYCLQHFNYPWTFGQGTKLEIKR
notes: Humanized form of E11E7; also called humanized antibody 9-22
B8: 10-22 (antibody, human IgG1, kappa, V domains shown)
VH: QVQLQESGPGLVKPSETLSLTCTVSGGSISSYNVHWIRQPPGKGLEWIGVIWTGGSTDYNPSLKSRVTISVDTSKNQFSLKLSSVTAADTAVYYCARDKYGLFPGYFDYWGQGTLVTVSS
VL: DIVMTQSPDSLAVSLGERATINCKPSQSLLSSGNRKNYLAWYQQKPGQPPKLLIYYASTRQSGVPDRFSGSGSGTDFTLTISSLQAEDVAVYYCLQHFNYPWTFGQGTKLEIKR
notes: Humanized form of E11E7; also called humanized antibody 10-22
B9: 6-23 (antibody, human IgG1, kappa, V domains shown)
VH: QVQLQESGPGLVKPSETLSLTCTVSGFSISSYNVHWIRQPPGKGLEWIGVIWTGGSTDYNPSLKSRVTISRDTSKNQFSLKLSSVTAADTAVYYCARDKYGLFPGYFDYWGQGTLVTVSS
VL: DIVMTQTPLSLPVTPGEPASISCKPSQSLLSSGNRKNYLAWYLQKPGQSPQLLIYYASTRQSGVPDRFSGSGSGTDFTLKISRVEAEDVGVYYCLQHFNYPWTFGQGTKLEIKR
notes: Humanized form of E11E7; also called humanized antibody 6-23
B10: 7-22 (antibody, human IgG1, kappa, V domains shown)
VH: QVQLQESGPGLVKPSETLSLTCTVSGGSLSSYNVHWIRQPPGKGLEWIGVIWTGGSTDYNPSLKSRVTISRDTSKNQFSLKLSSVTAADTAVYYCARDKYGLFPGYFDYWGQGTLVTVSS
VL: DIVMTQSPDSLAVSLGERATINCKPSQSLLSSGNRKNYLAWYQQKPGQPPKLLIYYASTRQSGVPDRFSGSGSGTDFTLTISSLQAEDVAVYYCLQHFNYPWTFGQGTKLEIKR
notes: Humanized form of E11E7; also called humanized antibody 7-22
B11: 10-23 (antibody, human IgG1, kappa, V domains shown)
VH: QVQLQESGPGLVKPSETLSLTCTVSGGSISSYNVHWIRQPPGKGLEWIGVIWTGGSTDYNPSLKSRVTISVDTSKNQFSLKLSSVTAADTAVYYCARDKYGLFPGYFDYWGQGTLVTVSS
VL: DIVMTQTPLSLPVTPGEPASISCKPSQSLLSSGNRKNYLAWYLQKPGQSPQLLIYYASTRQSGVPDRFSGSGSGTDFTLKISRVEAEDVGVYYCLQHFNYPWTFGQGTKLEIKR
notes: Humanized form of E11E7; also called humanized antibody 10-23
B12: 5-22 (antibody, human IgG1, kappa, V domains shown)
VH: QVQLQESGPGLVKPSETLSLTCTVSGGSIISYNVHWIRQPPGKGLEWIGVIWTGGSTDYNPSLKSRVTISRDTSKNQFSLKLSSVTAADTAVYYCARDKYGLFPGYFDYWGQGTLVTVSS
VL: DIVMTQSPDSLAVSLGERATINCKPSQSLLSSGNRKNYLAWYQQKPGQPPKLLIYYASTRQSGVPDRFSGSGSGTDFTLTISSLQAEDVAVYYCLQHFNYPWTFGQGTKLEIKR
notes: Humanized form of E11E7; also called humanized antibody 5-22
B13: 18-4 (antibody, human IgG1, kappa, V domains shown)
VH: EVQLQQWGAGLLKPSETLSLTCAVYGGSFSSYNVHWIRQPPGKGLEWIGVIWTGGSTDYNSVLKSRVTISVDTSKNQFSLKLSSVTAADTAVYYCARDKYGLFPGYFDYWGQGTLVTVSS
VL: EIVLTQSPATLSLSPGERATLSCKPSQSLLSSGNRKNYLAWYQQKPGQAPRLLIYYASTRQSGIPDRFSGSGSGTDFTLTISRLEPEDFAVYYCLQHFNYPWTFGGGTKVEIKR
notes: Humanized form of E11E7; also called humanized antibody 18-4
B14: 16-12 (antibody, human IgG1, kappa, V domains shown)
VH: QVQLQESGPGLVKPSQTLSLTCTVSGFSLISYNVHWIRQPPGKGLEWIGVIWTGGSTDYNSVLKSRVTMSRDTSKNQFSLKVNSVTAADTAVYYCARDKYGLFPGYFDYWGQGTLVTVSS
VL: EIVMTQSPATLSLSPGERATLSCKPSQSLLSSGNRKNYLAWYQQKPGQAPRLLIYYASTRQSGIPARFSGSGSGTDFTLTISSLEPEDFAVYYCLQHFNYPWTFGGGTKAEIKR
notes: Humanized form of E11E7; also called humanized antibody 16-12
B15: 14-12 (antibody, human IgG1, kappa, V domains shown)
VH: QVQLQESGPGLVKPSQTLSLTCTVSGGSISSYNVHWIRQPPGKGLEWIGVIWTGGSTDYNSVLKSRVTMSRDTSKNQFSLKVNSVTAADTAVYYCARDKYGLFPGYFDYWGQGTLVTVSS
VL: EIVMTQSPATLSLSPGERATLSCKPSQSLLSSGNRKNYLAWYQQKPGQAPRLLIYYASTRQSGIPARFSGSGSGTDFTLTISSLEPEDFAVYYCLQHFNYPWTFGGGTKAEIKR
notes: Humanized form of E11E7; also called humanized antibody 14-12
B16: 13-12 (antibody, human IgG1, kappa, V domains shown)
VH: QVQLQESGPGLVKPSQTLSLTCTVSGFSLISYNVHWIRQPPGKGLEWIGVIWTGGSTDYNSVLKSRVTMSVDTSKNQFSLKVNSVTAADTAVYYCARDKYGLFPGYFDYWGQGTLVTVSS
VL: EIVMTQSPATLSLSPGERATLSCKPSQSLLSSGNRKNYLAWYQQKPGQAPRLLIYYASTRQSGIPARFSGSGSGTDFTLTISSLEPEDFAVYYCLQHFNYPWTFGGGTKAEIKR
notes: Humanized form of E11E7; also called humanized antibody 13-12
B17: 15-12 (antibody, human IgG1, kappa, V domains shown)
VH: QVQLQESGPGLVKPSQTLSLTCTVSGGSISSYNVHWIRQPPGKGLEWIGVIWTGGSTDYNSVLKSRVTMSVDTSKNQFSLKVNSVTAADTAVYYCARDKYGLFPGYFDYWGQGTLVTVSS
VL: EIVMTQSPATLSLSPGERATLSCKPSQSLLSSGNRKNYLAWYQQKPGQAPRLLIYYASTRQSGIPARFSGSGSGTDFTLTISSLEPEDFAVYYCLQHFNYPWTFGGGTKAEIKR
notes: Humanized form of E11E7; also called humanized antibody 15-12

The assay deals with T1, IL-23 (HEK293E-derived) (human, UniProt P29460 23-328; Q9NPF7 20-189).
T1 sequence 1: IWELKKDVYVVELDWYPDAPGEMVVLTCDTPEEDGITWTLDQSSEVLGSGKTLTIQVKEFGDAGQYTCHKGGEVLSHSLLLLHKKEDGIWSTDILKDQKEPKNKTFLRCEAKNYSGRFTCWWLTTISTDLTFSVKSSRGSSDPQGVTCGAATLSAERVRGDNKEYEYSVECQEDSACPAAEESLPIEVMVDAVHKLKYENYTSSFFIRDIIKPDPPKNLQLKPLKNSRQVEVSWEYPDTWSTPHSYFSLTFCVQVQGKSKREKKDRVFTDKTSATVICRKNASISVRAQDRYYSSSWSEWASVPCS
T1 sequence 2: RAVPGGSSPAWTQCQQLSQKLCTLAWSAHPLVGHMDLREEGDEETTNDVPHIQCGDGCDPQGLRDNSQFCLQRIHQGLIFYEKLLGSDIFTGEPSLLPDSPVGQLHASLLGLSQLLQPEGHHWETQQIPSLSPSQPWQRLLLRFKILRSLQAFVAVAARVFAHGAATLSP
The assay is described as follows: SPR (Biacore), antibody supernatant captured on Protein A, IL-23 at 5 ug/ml as analyte. As to the method:
As a result of the humanization processes 22 humanized antibodies were produced and tested for their ability to bind human IL-23 (Table 4). Briefly, 2 mL transfections of the 22 humanized antibodies were screened for antibody expression level and binding activity via SPR. Protein A was immobilized onto FC1 and FC2 (or alternatively FC3 and FC4) of a CM5 research grade sensor chip using amine coupling, giving approximately 3000 RU. FC1 was used as a blank throughout the experiments. The experiments were run in HBS-P buffer (SPR). Antibody-containing cell culture supernatants were diluted in 10× HBS-P buffer at a ratio of 9:1. The diluted antibody was injected over FC2 at a flow rate of 20 μl/min. IL-23 (HEK293E-derived) was passed over the surface of FC1 and FC2 at a concentrations of 5 μg/ml as a kinetic injection with 5 min dissociation time across both
FC. Regeneration of the surface was performed using 10 mM Glycine, pH 1.5. The sensorgram data from FC2 were subtracted from FC1 and a buffer only control. […] The Sequence IDs of the variable heavy and light chains for each antibody are given in the Table 4 along with kd (off-rates) of selected tested antibodies.
For orientation: Surface plasmon resonance follows binding to a sensor surface in real time, without labels.
The molecule B1 showed an off-rate (koff) of 0.00462 s⁻¹.

Molecule B2 registered an off-rate constant (koff) of 0.00121 s⁻¹.

B3 came in with a koff of 0.00639 s⁻¹.

Take B4: the off-rate constant (koff) turned out to be 0.00056 s⁻¹.

Turning to B5, the koff came to 0.000285 s⁻¹.

B6 registered a koff of 0.00391 s⁻¹.

On to B7, for which the koff stood at 0.000198 s⁻¹.

As to B8, the dissociation rate constant (koff) stood at 0.00313 s⁻¹.

Molecule B9 yielded an off-rate constant (koff) of 0.000566 s⁻¹. This koff lies about 5.5-fold lower than the previous one.

In turn, B10 yielded a koff of 0.00102 s⁻¹.

For the molecule B11, the off-rate constant (koff) was found to be 0.013 s⁻¹.

On to B12, for which the koff stood at 0.00198 s⁻¹.

Consider B13, for which the koff was 0.00133 s⁻¹. The koff values of the last two molecules are within 1.5-fold of each other.

Molecule B14 showed an off-rate constant (koff) of 0.000224 s⁻¹. Compared with the last molecule, the koff is about 5.9-fold lower.

In turn, B15 came in with a koff of 0.00349 s⁻¹. This koff is about 16-fold higher than that of the molecule before.

The molecule B16 showed a koff of 0.000855 s⁻¹. Compared with the last molecule, the koff is about 4.1-fold lower.

Consider B17, for which the dissociation rate constant (koff) was found to be 0.006 s⁻¹.
